Publication doi:10.1101/2023.12.06.570360

Biological target: Htz1(T46C)-2xFLAG (yeast histone H2A.Z with a cysteine probe) (S. cerevisiae)
Assay: cross-linking

Substance	percent of bulk H2A.Z in the H2A-to-H2A.Z cross-linked adduct (WT cells) [%]	percent of bulk H2A.Z in the H2A.Z-to-H2A.Z cross-linked adduct (WT cells) [%]
Hta1(N39C) (yeast histone H2A with a cysteine probe) (natural protein)	57	
Htz1(T46C)-2xFLAG (yeast histone H2A.Z with a cysteine probe) (natural protein)		12
